Test results reported in publication PMC6948101 (Nature, 2019).

Target: the molecule itself
Experiment: SEC-MALS

B1: DHR10-mica6-NC (designed binder)
chain: GSGGSSEVLELAIRLIKEVVENAQREGYDISEAAAAAAEAFAAVAEAAKAAGITSSEVLELAIRLIKEVVENAQREGYDISEAAAAAAEAFAAVAEAAKAAGITSSEVLELAIRLIKEVVENAQREGYDISEAAAAAAEAFAAVAEAAKAAGIASSEVLELAIRLIKEVVENAQREGYDISEAAAAAAEAFAAVAEAAKAAGITSSEVLELAIRLIKEVVENAQREGYDISEAAAAAAEAFAAVAEAAKAAGIASSEVLELAIRLIKEVVENAQREGYDISEAAAAAAEAFAAVAEAAKAAGIGWE
stoichiometry N: 2.1 times the MW of a monomer
